Measured values: IntAct's records for PubMed 23374343

B1: Sialic acid-binding Ig-like lectin 10 (Mus musculus), Q80ZE3 (parent)
chain: MSLLLFLLSFLLDGPQGQMESYFLQVQRIVKAQEGLCIFVPCSFSSPEGKWLNRSPLYGYWFKGIRKPSLSFPVATNNKDKVLEWEARGRFQLLGDISKKNCSLLIKDVQWGDSTNYFFRMERGFERFSFKEEFRLQVEALTQKPDIFIPEVLEPGEPVTVVCLFSWTFNQCPAPSFSWMGDAVSFQESRPHTSNYSVLSFIPGLQHHDTELTCQLDFSRMSTQRTVRLRVAYAPRSLAISIFHDNVSVPDLHENPSHLEVQQGQSLRLLCTADSQPPATLSWVLEDQVLSWSSPVGSRTLALELPWVKAGDSGHYTCQAENRLGSQQHTLDLSVLYPPQDLRVTVSQANRTVLEILRNAISLPVLEGQSLCLVCVTYSNPPANVSWAWVTQTLIPIQSSEPGVLELPLVQREHEGEFTCAAQNPLGAQRISLSLSVHYPPQMSSPSCSWEAKGLHCNCSSRAWPAPSLRWRLGEGLLEGNSSNASFTVTFSSLGPWVNSSLSLLQELGPSLWLSCESWNTHGAQTTSVLLLPDKDSATAFSKGAVLGFGITALLALCLIVVIVKTLQKKGTQEEPSRPKLSRGSTILDYINVVPKTRSLARNWKAEPDAPSRSSPLDTHFPKPKKKQKDPHFTYPGCPDPTSSSQVPVSENNPEELHYAALNFSRLRLQETQDPQDTYSDYTEVRVH
partner: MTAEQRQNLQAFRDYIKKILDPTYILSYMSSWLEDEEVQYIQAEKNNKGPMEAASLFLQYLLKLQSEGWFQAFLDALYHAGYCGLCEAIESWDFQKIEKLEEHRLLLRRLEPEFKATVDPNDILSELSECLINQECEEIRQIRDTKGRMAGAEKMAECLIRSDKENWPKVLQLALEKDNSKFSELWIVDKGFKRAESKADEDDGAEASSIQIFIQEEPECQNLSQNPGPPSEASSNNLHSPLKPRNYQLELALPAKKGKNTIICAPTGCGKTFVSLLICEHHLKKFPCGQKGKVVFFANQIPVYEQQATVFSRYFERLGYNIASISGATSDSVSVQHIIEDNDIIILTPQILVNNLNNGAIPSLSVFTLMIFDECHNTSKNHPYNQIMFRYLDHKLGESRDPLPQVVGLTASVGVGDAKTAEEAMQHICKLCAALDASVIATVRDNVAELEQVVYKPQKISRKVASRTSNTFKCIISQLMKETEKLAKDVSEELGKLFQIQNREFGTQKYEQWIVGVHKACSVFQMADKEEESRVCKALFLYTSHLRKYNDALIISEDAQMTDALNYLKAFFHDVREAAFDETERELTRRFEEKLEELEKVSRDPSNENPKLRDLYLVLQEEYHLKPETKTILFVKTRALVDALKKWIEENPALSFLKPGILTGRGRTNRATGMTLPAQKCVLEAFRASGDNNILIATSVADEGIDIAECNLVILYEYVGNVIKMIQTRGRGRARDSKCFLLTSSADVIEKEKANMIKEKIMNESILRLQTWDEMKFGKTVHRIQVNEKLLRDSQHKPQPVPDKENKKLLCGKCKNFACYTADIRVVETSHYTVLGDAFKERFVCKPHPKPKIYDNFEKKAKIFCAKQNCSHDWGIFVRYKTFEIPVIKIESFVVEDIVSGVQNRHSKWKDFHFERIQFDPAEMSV

Variants of: B1
Conditions: with rigi_mouse Rigi

effect of a mutation on the interaction | Variant
decreasing interaction strength | Y590F;Y635F;Y659F;Y679F
